This experiment deals with Oregon-Green-labelled actin monomers (OG-actin) (UniProt P68135). The experiment is described as follows: stopped-flow fluorescence kinetics.

Broadly, the kon is a measure of how fast the partners come together. Lower therefore signals slower complex formation.

“EVH2 domain of human VASP (hEVH2) (domain or fragment)” registered a kon of 1.2e+07 to 1.8e+07 M⁻¹ s⁻¹.

Source of the values: PMC3034019.
